The supplement of paper PMC12636428

Tested on: Saccharomyces cerevisiae
Test: transcriptional activation domain activity (GFP:mCherry ratio, weighted mean of sorted bins, harmonized to initial dataset scale) (arbitrary fluorescence ratio units); higher = stronger transcriptional activation
Conditions: beta-estradiol 1 µM; induction time 4 h
Procedure, shortened: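 After a 1:5 dilution into SC with 1 uM beta-estradiol and 4 hours at 30 °C, yeast diploids carrying a GFP reporter and URA3-integrated barcoded tiles were sorted into 8 bins by GFP:mCherry ratio. The tiles were fused to an estradiol-inducible synthetic transcription factor. Barcodes were sequenced, tiles below 50 reads were discarded, and activation activity was taken as the read-weighted mean of bin median fluorescence, averaged across barcodes and linearly mapped onto the initial dataset scale.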

PLALDFPPLGHMVELVDVVMWLCGRAGELPMWPQKIFNFNWIELSMKYPHHFI
transcriptional activation domain activity: 50500

LVLLFSLYPLLLPLLPLFPFLLSLFLPLPLNLPKIPAAFFFVFLNIYFLFSIL
transcriptional activation domain activity: 27700

TLWLLLLCLRCSTSVLALLTLLSCSSFPPFLGFHLSRALWPVLRCPLPSMLCS
transcriptional activation domain activity: 59400

IYESALQTEHHKQGIGRSIAEAVKNRELSGFDQFQQIISFCLCVLKQLYRRFT
transcriptional activation domain activity: 37600

SKWEVANKKTRDEASKGGGGKGGGGGKGGKAGEGGKEKRSEKKAAAKEGGKKK
transcriptional activation domain activity: 39600

GKKRRRSSSSSSSSSGSSSSGSSSSSGSDSESDSSSDSSSSSSNSSRSSGSRS
transcriptional activation domain activity: 24900

MVLCPSSYSFPLPPFFLFFFLSSPFFFAALFFFFPFLPPNSRVCPSLFPLSLL
transcriptional activation domain activity: 62600

LPHFPIIHPSLLDLDLDSLQRYTNEDGYDDAENAQLFDRLSQGTDKEYDYEHY
transcriptional activation domain activity: 71500

AADADEDDEDAPKKAPKKPAKRGRKKADDDDEEPEEEAQPAKKKAKGGRKAKK
transcriptional activation domain activity: 47700

DFWFFLFVYYGFYNLVGLLWITKVFNMYGLNWWPVRLGFPATFTLFNCLSLAC
transcriptional activation domain activity: 65500

RGINAPLIQIPLYNNDPWIQTTISDDYLLPPGWFDILFPTNFDLLKDIYLTAF
transcriptional activation domain activity: 60600

EHHLLKALVDVIKRAMLISAQGASGRFEAKDLHLEHMIYWLKYFLNRAVCIAL
transcriptional activation domain activity: 62700

WLRPPRWACGRRALLLLSMGLGTVMLLILTGLLTMNQSNGAKLPVVMVFVILF
transcriptional activation domain activity: 32600

EAEIGVAAEDKISPQKARRKAKVEKEDGKAEEGAEGQKTTKRRRKTKEEKEEE
transcriptional activation domain activity: 14900

SEEETSRSRSSKKHAISSGSDSDRDSRKVRKSRHSSSDEERYQKSHKSSSRRR
transcriptional activation domain activity: 52400

MFTGTLWLAFFLDCCLWWYMMFLCFWYEACLHVLLLGFHVYCLLWCMILSLSL
transcriptional activation domain activity: 58200

FQAQGDDELTVVEGDALWIIEQEGDEWWKCRNIKGDEGVVCVVIPRPTGAGRL
transcriptional activation domain activity: 36300

MPSAYHLGITPFGVHQWDINLRTLQRYLFFLYCCWIIWGILVLLLKVIILLQY
transcriptional activation domain activity: 39700

IVLSVLCSLLNTTLKYNPATWRVPYDHVVFKDSRQILVSYCLQFLLVLILYPV
transcriptional activation domain activity: 46600

MTVSLQLYSHTLQLVLCCACAPPLLKFLLFCFFFFFWFFFFFWFCFWFFLLMF
transcriptional activation domain activity: 38000

ATADRDGEREAQEVVATTVVHCHGLFGKTYISIIRAFHVLIVKHSLARLPKKI
transcriptional activation domain activity: 60700

IPYVAQEYGFDYELVTYKWPSWLRAQKEKQRVIWAYKILFLDVLFPLDLKKVI
transcriptional activation domain activity: 62100

MFSFYMPTPPPFFPFPLVLFFFFFAVHRFHKISTFSTPFFFWIHFIVVLLFSF
transcriptional activation domain activity: 58600

GRRRDNGGRRQGGGRRDGGGGGGGGGGRGRGERGGGGGERGERGGGARPKKTQ
transcriptional activation domain activity: 34900

VRVVQLSLSLFIARFVTALVLPFIAIVTKWLVIGRYRPGIFPLWGTYYLRWWF
transcriptional activation domain activity: 45000

MRQARGLHCRCPFGYRASLVLCLYLDVLFEGGFLYFYFFVPFFHATTFFFFLL
transcriptional activation domain activity: 37700

NEENIRREQDAADEIAQKLRDDIRSRTGCDVSVGIGSNILQAKVALRKGKPAG
transcriptional activation domain activity: 35200

LLQSSKEDIPFINANLAFPDDNSTNIQLQPFSESQSQNKFDYDMFFRDSSKEG
transcriptional activation domain activity: 80700

RRDALRAQQQRDTHARHGAGAARKHGQPVCVRQHRGQLHLSEPVGGAAAAAVH
transcriptional activation domain activity: 66200

IKPEEPVVAAAEEPATAPVVEETKPEEVAAEVAAEEDAAPVEEATPAEEVKPE
transcriptional activation domain activity: 12400

QEDDPMPYLSWTPTVGRNSAFVDLTEEQREELGGIEYRSLKLLLIILVCYYVG
transcriptional activation domain activity: 48300

RADADAAASGGHDRRRKRARSDASPSDGHASDASTARRERSSRRSSRSHPRHA
transcriptional activation domain activity: 18500

MGPWICQTQPTSYLILSGLVHSFLKSSQGFISYIFSTLVHMTFLVFLYIHLFR
transcriptional activation domain activity: 58800

RNEGEARKGEGGRMRVVGIRQRAEGKTRRRGRKRERGREGSERRGEGGGREQG
transcriptional activation domain activity: < 6570

LFFLSFLFFPFLSFLSFLFLFSFLFFPSFLFFPSLFLFLFSSPFHPIPFLFSS
transcriptional activation domain activity: 57800

QELCRTANITYHRTSYPVVHRHLFSTPSLQRLMTWLKELPYQVAFQVELLVRG
transcriptional activation domain activity: 49100

DKPIAAKKPSAQRKRKVKLESDADSSGDDQPIVKKPAAKKPRASKAKKEEPAS
transcriptional activation domain activity: 23100

IVNFTLLVLIVPRLSIWCRPHSKRMHGAGVWDSFVLARASIFVSVLGVLCVAL
transcriptional activation domain activity: 54400

APQPVEATAIDDGFQEAKRGRGRKKAKEEVVASAPAAPADAPQVAKAKVVASA
transcriptional activation domain activity: 23300

AAAVAAKKPEEKKEETPAEAATEAPKEEAKEEKKEEKAATKSRSQSRKRTSIF
transcriptional activation domain activity: < 6570

MGSNANKRREDGPKKEQLQKRVLHIRSVARSTKGGKIRSSSAIVVVGNGNGVG
transcriptional activation domain activity: 42400

MWGVLCNWLKHNGMVFSVQCFTFDFLFSFPLSLFFPFFLFSFFLFFLYSFAII
transcriptional activation domain activity: 50100

QCGLICTLYFANRYGIILGSLPFALQPFIHWTSKGWCLIFRIYLLIYASFVLL
transcriptional activation domain activity: 43200

IDDFEQFRTEYTIDLSDFQNTERLKFLEEYYWKTLNFTTPMYGADTPGSIFPE
transcriptional activation domain activity: 93300

PLVVTALCVAPHEFFMKNWVSCFEVGLVKLKEKPYRMIVMNGMMRLIWTYLYR
transcriptional activation domain activity: 52800

DAAKPAQGLFGGALAAGKSGETPKPAGSLFGAPSSSTKTGEEAKPAGGLFGAG
transcriptional activation domain activity: 26100

LDDLKLQPIINRYRNCKGLSPSDLRLSLDQLKCLNHQFSVIILRILFKHCPLY
transcriptional activation domain activity: 72900

SSIRQMLKISLVRPLHMLLTEPVLFLFAVSLHPFRPRIYLMLEAIPLVFTRLY
transcriptional activation domain activity: 40900

KGETAFVEVDEFNRRKDGKEEGGVHNSDMVIKVYLPPHFRVRIALFVLAIWAF
transcriptional activation domain activity: 23800

RTFLRWTLDTLAQCTTFEVMWLILTGVIQDYIDEYKRNRTLTKLLIEALIKSY
transcriptional activation domain activity: 55500

LYFMPVRWYTYHKIGFHYFLADLCYFVNFLMVLCIWFFPNSKRLFISTFCLAF
transcriptional activation domain activity: 72000

EKDKKEETKDEPKKNEVKPETKDDVDEKKDENGRPKLVVKRLRKETTAAAAVA
transcriptional activation domain activity: 37600

VPGEVTDAEANGEVKAEDADGAEKTKPKKKKKSKAAKAKAKAEGAVEGATAAV
transcriptional activation domain activity: 52900

GLRDNVIENRQGKKGAGKAAAAGGAGAAAANTNAATGGKAAKAAKAAAAGGSG
transcriptional activation domain activity: 48900

GLMGALGFRMLFGVPCLPFFALHWFLWLVNDYILYCVLVQTNRISSIHFLRAW
transcriptional activation domain activity: 41200
